B1: MLL5 (parent)
chain: DCMGIDRQHIPDTYLCERCQPRNL
B2: MNAT1 (parent)
chain: SLREYNDFLEEVEEIVFNLTNNVD

Variants of: B1
Test: protein stability index of a GFP-peptide fusion (GPS, HEK-293T) (PSI 1-6); higher = more stable
Conditions: c terminus: a fixed tail appended
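Note: lentivirally expressed fusions sorted by FACS into six bins by GFP to DsRed ratio, PSI derived from sequencing read proportions per bin multiplied by bin number.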

Protein stability index: each site, then its substitutions
I10: L 3.02; S 3.14; E 3.72; F 2.54; C 3.62; R 3; T 2.48; Q 3.42; P 2.97; W 2.37; K 3.04; H 3.49; V 2.45; A 2.92; G 3.13; Y 3.49; N 3.3; M 3.9; D 3.56
Q8: H 2.89; S 3.25; C 2.73; K 2.44; V 2.1; T 2.33; E 2.63; I 2.56; Y 2.65; G 2.59; F 1.98; P 3.41; N 3.07; R 2.5; W 1.76; D 2.27; L 1.99; A 2.54; M 2.58
I5: D 2.87; T 3.69; C 3.73; H 3.99; K 3.48; V 3.16; G 3.5; E 3.57; P 3.27; N 3.67; W 2.88; Q 3.37; M 3.1; A 3.7; S 2.54; F 2.85; Y 2.61; R 3.37
R7: Q 3.06; M 2.55; C 4.09; H 3.73; E 3.58; I 2.24; W 2.4; Y 2.2; D 3.62; S 3.44; N 2.9; V 2.39; T 3.02; L 2.68; P 2.94; F 2.78; K 2.29; A 2.63; G 3.69
D6: S 2.99; T 2.02; L 2.31; V 2.4; Y 2.47; H 3.19; R 2.74; W 1.62; G 2.78; K 2.59; Q 3.21; C 3.29; P 2.61; N 2.4; F 1.74; I 1.56; E 2.78; M 1.88; A 3.27
M3: Y 3.03; D 3.75; G 2.94; W 3.54; R 2.61; A 2.48; K 3.63; P 3.32; Q 2.48; H 2.81; S 3.66; N 2.88; C 3.14; V 2.9; F 2.57; E 4.56; T 2.47; I 2.77; L 2.89
C2: M 2.89; A 3.09; I 2.57; E 3.79; D 3.08; V 2.77; W 2.21; P 4.03; N 3.41; K 2.99; Q 3.48; S 2.63; F 2.1; H 3.36; G 2.7; R 3.38; T 3.21; Y 2.53; L 2.73
H9: P 2.12; T 3.11; Y 2.01; K 3.58; F 2.04; Q 3.04; L 2.93; M 2.16; W 2.23; C 3.29; V 2.63; G 2.77; I 2.24; S 2.98; D 2.56; R 2.64; E 2.86; A 2.63; N 2.65
G4: D 3.11; L 2.63; F 2.37; S 3.45; K 3.19; V 2.38; Q 2.88; W 1.78; I 2.41; P 2.55; A 2.23; M 2.88; C 3.73; T 3.23; N 2.19; H 3.98; Y 2.49; R 2.48; E 3.23
D1: T 2.43; M 1.91; Q 2.41; A 2.69; Y 1.95; S 3.17; I 2.17; E 2.63; C 3.63; H 2.73; F 1.89; K 2.58; R 2.42; V 2.86; W 1.4; P 3.3; N 2.21; L 2.21
P11: C 4.15; A 2.6

Variants of: B2
Test: as above
Conditions: c terminus: a fixed tail appended

Protein stability index: each site, then its substitutions
F17: W 1.95; Q 2.78; Y 1.91; V 2.82; G 3.4; E 3.34; R 2.2; S 3.11; C 2.88; L 2.19; H 3.15; P 4; N 2.16; T 3.16; K 2.38; D 3.2; M 2.57
L19: R 3.34; A 3.2; F 2.24; P 4.05; S 4.18; M 2.89; K 4.26; H 4.43; C 3.34; W 1.63; G 4.19; V 2.97; Y 3.06; N 3.76; E 4.55; T 3.6; Q 4.07; D 4.43; I 1.84
D24: A 1.79; P 2; L 1.82; S 2.07; E 2.47; C 1.5; N 1.31; H 1.88; I 1.85; K 1.81; Q 1.73; W 1.54; G 2.61; V 1.65; Y 1.9; F 1.87; R 1.26; T 1.82
N18: M 1.84; R 1.6; W 2.52; S 2.16; Y 1.4; D 2.36; T 2.55; K 2.01; P 2.71; G 2.38; V 2.32; A 1.84; H 1.85; F 2.22; E 2.16; C 1.71; Q 1.73
V23: S 3.05; W 1.57; L 1.64; F 2.71; N 2.35; A 2.69; T 2.5; C 2.47; H 2.38; G 2.73; P 3.05; Y 1.8; E 2.82; D 2.92; I 1.98; M 1.44; Q 2.21; K 2.08; R 2.18
T20: C 2.31; Q 2.37; A 1.07; F 1.5; K 2.41; W 2; M 1.86; P 3.19; D 3.91; I 1.41; V 1.33; H 2.25; N 2.56; S 3.05; Y 1.5; E 2.51; G 2.31; R 2.46; L 2.75
N22: K 2.64; P 2.25; C 1.66; Q 1.84; V 1.9; H 2.15; G 2.96; R 2.09; W 2.97; D 1.98; F 2.47; Y 1.38; I 2.25; M 1.44; S 1.78; E 2.38; L 1.16; T 2.06; A 2.69
N21: P 2.19; L 1.81; T 2.42; M 2.48; Y 2.4; C 1.48; R 1.95; E 2.51; Q 3.08; H 1.76; G 2.58; A 1.42; K 1.45; D 3; I 1.73; S 1.68
